Measured values as given in the supplement of paper PMC9170038.

Test system: MS2 coat protein
Assay: apparent KD of MS2 coat protein; higher = weaker reporter binding
Details: Eterna round: R107
Summary of the method: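 Titration buffer: 100 mM Tris-HCl pH 7.5, 80 mM KCl, 4 mM MgCl2, without or with constant ligand. Designed RNA switches transcribed on-chip from Illumina sequencing clusters received SNAP-549-labelled MS2 coat protein in twofold steps from 0.7 or 1.5 nM to 3 µM. Apparent KD is the median per design of fits to normalised cluster binding curves.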

[1] = input ligand: theophylline 20 uM
[2] = input ligand: tryptophan 2.4 mM
[3] = input ligand: theophylline 2 mM

| Sequence | apparent KD of MS2 coat protein (input ligand: arginine 13.2 mM) [nM] | apparent KD of MS2 coat protein [1] [nM] | apparent KD of MS2 coat protein [2] [nM] | apparent KD of MS2 coat protein (input ligand: none) [nM] | apparent KD of MS2 coat protein [3] [nM] |
| --- | --- | --- | --- | --- | --- |
| AUCGUACCUGAUGAUACCAGCAUGUGAUCAUAACAUGAGGAUCACCCAUGUAAUCAGUGAUGCCCUUGGCAGCAUGAUCGGUACA [Same State - Theophylline B (Freestyle 13)] | 45.5 | 79.6 | 56.7 |  |  |
| AUCGUACCUGGUGAUACCAGCAAGUGAUUAUAACAUGAGGAUCACCCAUGUAAUCAGUGAUGCCCUUGGCAGCAUAAUCGGUACA [#24 Same State - Theophylline B] | 26.9 | 37.8 | 26.6 |  |  |
| AUGCCUAGUGGAAGGAGCGAGGGUCUUCCCAACAUGAGGAUCACCCAUGUUCUUUUACACCCUCAGGUAGGUCGCCAUUGGGACA [Tilexete] | 41.7 | 107 | 82.8 | 64.6 | 47.6 |
| AUGUCACAUGAGGAUCACCCAUGUAUGGAUACCAGUUUAGUGAAUAACCCUUGGCAGCCAAGGAUGCGACAGAAAUCCGGAAAAC [theeternabot_sameState_MS2_Theo_A_22] | 19 | 26.6 | 20.5 |  |  |
| AUUAACAUGAGGAUCACCCAUGUGGCCCACCGAGGACCGGUACGGCCGCCACUCGUCGGAAAGGCUAAAUUUAUGAAGUCCAAAA [theeternabot_sameState_MS2_Trp_A_40] | 18.6 | 25.4 |  |  | 17 |
| AUUAAUAAUAUGUAGACGGCGGAGACGAGACGAGGACCGGUACGGCCGCCACUCGUGUUAGUUAACAUGAGGAUCACCCAUGUUA [#10 Tryptophan A Same State] | 11.2 | 17.5 |  |  | 13.9 |
| AUUCAUGAAAACAUGACAUAGGGAUCACUCCGAGGACCGGUACGGCCGCCACUCGCGAGGAGGCACAUGAGGAUCACCCAUGUUA [SS Tryp A #3] | 36.8 | 146 | 108 | 115 | 180 |
| AUUGUGAAGUCGGCCGCCACUGGUUAGUUUAACCUCAUGUAACAUGAGGAUCACCCAUGUAAUGACAGGACCGGGACAAUAGUAA [JR_ExcTryptoB_Sub015] | 103 | 126 |  |  | 194 |
| AUUUACAUGGUCAUAUAUAUAUCGUCAGAUACCAGACUAGAUAUUGUCCCUUGGCAGCUGUUACAUGAGGAUCACCCAUGUUAUA [JR_Nu_ExcTheophyA_Sub020] | 54.5 | 113 | 178 |  |  |
| AUUUUCGUAGGUUAAAGUUUAGAAACUGAAGGAGCGUGGUAUUACACAGGUAGGUCGCAGAUUUUACAUGAGGAUCACCCAUGUU [JR_ExcArginiA_Sub011] | 14.9 | 25.4 | 17.7 | 22 | 20.6 |
| CAAACAUGAGGAUCACCCAUGUAAUCAGAUACCAGUGACGAAAGUCACCCUUGGCAGCUGAGUACAUAUUGGCAGAGGUGUUUGA [EThA NP+V+V2 #7] | 41.4 | 94.2 | 64.4 |  |  |
| CAAUCAAUCAAUCAAUCAAUCAACCAUGAAGGAGCGUGGGAAACCACAGGUAGGUCGCAUGGAAAACAUGAGGAUCACCCAUGUA [Casablanca] | 22.1 | 45.2 | 29.2 | 30.9 | 36.4 |
| CACAUGAGGAUCACCCAUGUCUGAACUGAAGGAGCGCUAAACAAGGCAGGUAGGUCGCGGAAUUUUGUGUGCAUAUGCACAUGGG [9.O] | 19.7 | 22.3 | 25.8 | 28.2 | 24.6 |
| CACAUGAGGAUCACCCAUGUCUGAACUGAAGGAGCGCUAAAUAAGGCAGGUAGGUCGCGGAAUUUUGUGUGCAUAUGCACAUGGG [9.P] | 17.2 | 30.7 | 23.9 | 27.9 | 26.9 |
| CAUAUAUAAGCGGCCGCCACUUACUCAUGAGGUAACAACAUGAGGAUCACCCAUGUUUGAGGAUCAAGGACCGGGCUUAUAUAUG [AstrosSSTryB#5] | 27 | 27.3 |  |  | 28.5 |
| CAUGAGAGAUUGUUUUGUGACUCUAACGAUACCAGAGUAGGACUUCUCCCUUGGCAGCGUGUGACAUGAGGAUCACCCAUGUCCA [theeternabot_exclusion_MS2_Theo_A_5] | 11.8 | 12.9 | 11.3 |  |  |
| CCCAGUCAUAGCAAAGCAAAUAUACUCGAAGGAGCGUCAUAGUAGGCAGGUAGGUCGCGAGACAUGAGGAUCACCCAUGUAGAGA [ooomullin] | 35.6 | 46.7 | 41.3 | 39.7 | 57.8 |
| CCGGCCAGGGCGGCCGCCACUGAACGUGGAAGAAAGAAAACAUGAGGAUCACCCAUGUAAAUCCUCAGGACCGGGCCAGGGCCGG | 42.3 | 71 | 17.8 | 57.8 | 67 |

| Sequence | apparent KD of MS2 coat protein (input ligand: arginine 13.2 mM) [nM] | apparent KD of MS2 coat protein [1] [nM] | apparent KD of MS2 coat protein [2] [nM] | apparent KD of MS2 coat protein (input ligand: none) [nM] | apparent KD of MS2 coat protein [3] [nM] |
| --- | --- | --- | --- | --- | --- |
| CCGUCACAUGAGGAUCACCCAUGUGCGGAAGGAGCGGACGACAGUCCAGGUAGGUCGCCGUAUAGCCAAUGACCAGCAGUGUCGG [Betesotiqu] | 5.9 | 20.8 | 13.9 | 10.6 | 9.93 |
| CCGUCCCUCGGAAGGAGCGGCGCAAUGUAAGGGACCUUUUAUACAUGAGGAUCACCCAUGUGCCAGGUAGGUCGCCGAGAGCGUG [Erxeatge] | 79.5 | 74 | 140 | 77.2 | 145 |
| CCGUUUUAUGGCGACAUAGGGCGGACUGAAGGAGCGGUAAAACAGCCAGGUAGGUCGCAGAGAUCCACAUGAGGAUCACCCAUGU [!0.aC] | 35.7 | 43.2 | 37.9 | 39.1 | 51.2 |
| CCUAUCCAGUCGGCCGCCACUGACCAUUUGGAACAGUGGGUGAAUACAUGAGGAUCACCCAUGUACAGGACCGGGACUGUAUAGG [Ex Tryptophan B 21] | 14.4 | 13.1 | 27.9 | 11.2 | 10.4 |
| CCUAUGCAGUCGGCCGCCACUGAACAUGAGGAUCACCCAUGUAAUUAAAAUUAUGAUCCUGAAAUCAGGACCGGGACUGUAUAGG [Ex Tryptophan B 5] | 28.6 | 165 |  |  | 431 |
| CCUCAAUAGACGGCCGCCACUGAAUCAUGCGGAUACAUGAGGAUCACCCAUGUGGGUGUGGUACGCAGGACCGGGUCAAGACCCG [#13 Same State - Tryptophan B] | 278 | 454 | 149 | 145 | 1860 |
| CCUCAAUAGACGGCCGCCACUGAGACAUGAGGAUACAUGAGGAUCACCCAUGUGGGUGUGUCACGCAGGACCGGGUCAAGACCCG [Tryp B SS t2] | 183 | 497 |  |  | 794 |
| CCUCAUGAACAUGAGGAUCACCCAUGUACACGAGGACCGGUACGGCCGCCACUCGAAUAACCUAAAUAUAAAUAAUAAUAAUAGG [5' end split MS2] | 14.6 | 20.1 |  |  | 18.1 |
| CCUUACGUUGGGCAGCCAGUUCGAAGUGAUACCAGUCACAAAAGUGACCCUUGGCAGCACCGCACAUGAGGAUCACCCAUGUCUA [SSThA NP+V+V2 #8 Same Structure] | 36.4 | 55.1 | 62.8 | 34.8 | 63.3 |
| CGAAUAUAGACGGCCGCCACUCUACAAACAUGAGGAUCACCCAUGUUCACAUAGAGGAAACUCAUGAGGACCGGGUCAUAGGCUU [#20 Same State - Tryptophan B] | 23.5 | 32.5 |  |  | 27.4 |
| CGAUCCUGCAGGGAUACCAGCGCCGCUUGAUAACUGUGCACAUGAGGAUCACCCAUGUAGCGCCCUUGGCAGCCCAGCUAGAGGG [Same State Theophylline B GF25] | 12.9 | 29.2 | 14.7 | 15 | 13.9 |
| CGCACAUGAGGAUCACCCAUGUGAGGGCGGCGAGGACCGGUACGGCCGCCACUCGCAGGACAUGAGGAUCACCCAUGUGCCGCCG [SSTA DOUBLE!!! :-D] | 32.5 | 397 | 351 | 548 | 501 |
| CGGCCCUCACGUGAGGAUCACCCACGUGAUACCAGCCUGGAAACAGGCCCUUGGCAGCACUAGGUCAUCAAAGAUGACCAAGCCG [TheoAX 27 #OpenEnded #AlternativeMS2] | 11.8 | 14.1 | 11.3 | 10.7 | 18.9 |
| CGGUCGGUCGGUCGGUGAGUAUGGGAUGAAGGAGCGUGGGAAGCUACAGGUAGGUCGCAUCCGGGACAUGAGGAUCACCCAUGUU [#19 Same State - Arginine A] | 19.8 | 43.3 | 25.1 | 27.7 | 41.7 |
| CGGUUUGUGAUGGAUACCAGCAGAGUGACUGUUUAUCCUGACAUGAGGAUCACCCAUGUGUGCCCUUGGCAGCUGUUGUGGGCUG [8.aA] | 66.3 | 111 | 65.7 |  |  |
| CGGUUUGUGAUGGAUACCAGCAGAGUGGCUGUUUAUCCUGACAUGAGGAUCACCCAUGUGUGCCCUUGGCAGCUGUUGUGGGCUG [8.aB] | 85.8 | 137 | 74.4 | 86.8 | 108 |
| CGUCGAAACUGAAGGAGCGAGAUAACAACAUUGGGUCUCAACAUGAGGAUCACCCAUGUAUCUCAGGUAGGUCGCGGUGUCACCG [Exclusion Arginine B GF19] | 176 | 267 | 217 | 202 | 429 |
| CGUCGAGACUGAAGGAGCGAGAUAACAACAUUGGGUCUCAACAUGAGGAUCACCCAUGUAUCUCAGGUAGGUCGCGGUGUCACCG [Exclusion Arginine B GF20] | 137 | 302 | 298 | 330 | 484 |
